Test results as given in PMC6863750 (Nature cell biology, 2018).

Tests used:
[1] = biological target: purified recombinant Rac1 Q61L (analyte in SPR) (UniProt P63000 1-192, Q61L); assay: SPR
[2] = biological target: His-Rac1 Q61L (immobilised in SPR) (UniProt P63000 1-192, Q61L); assay: SPR

Row | Kd [1] | Kd [2] | Binder
1 | 27 µM |  | GST-CYRI-B RBD (domain or fragment) ESEKEIYNQVNVVLKDAEGILEDLQSYRGAGHEIREAIQHPADEKLQEKAWGAVVPLVGKLKKFYEFSQRLEAALRGLLGALTSTPYSPTQHLEREQALAKQFAEILHFTLRFDELKMTNPAIQNDFSYYRRTLSRMRINNVPAEGENEVNNELANRMSLFYAEATPMLKTLSDATTKFVSENKNLPIENTTDCLSTMASVCRVMLE
2 |  | 22 µM | CYRI-B RBD (analyte in SPR) (domain or fragment) ESEKEIYNQVNVVLKDAEGILEDLQSYRGAGHEIREAIQHPADEKLQEKAWGAVVPLVGKLKKFYEFSQRLEAALRGLLGALTSTPYSPTQHLEREQALAKQFAEILHFTLRFDELKMTNPAIQNDFSYYRRTLSRMRINNVPAEGENEVNNELANRMSLFYAEATPMLKTLSDATTKFVSENKNLPIENTTDCLSTMASVCRVMLE
